{"source": "patent US20070189962A1", "about": "(GOV OF US AS REPRESENTED BY THE SEC OF HEALTH, published 2007)", "molecules": {"B1": {"name": "B5 (scFv displayed on phage) (scFv, V domains shown)", "VH": "EVQLVESGGGLVKPGGSLKLSCAASGFAFSIYDMSWVRQTPEKRLEWVAYISSGGGTTYYPDTVKGRFTISRDNAKNTLYLQMSSLKSEDTAMYYCARHSGYGTHWGVLFAYWGQGTLVTVSA", "VL": "DIQMTQTTSSLSASLGDRVTISCRASQDIHGYLNWYQQKPDGTVKLLIYYTSILHSGVPSRFSGSGSGTDYSLTISNLEQEDFATYFCQQGNTLPWTFGGGTKLEIK", "notes": "also called mutant B5; L-CDR1 HG mutant of HA22"}, "B2": {"name": "B8 (scFv displayed on phage) (scFv, V domains shown)", "VH": "B1 VH", "VL": "B1 VL with H30R", "notes": "also called L-CDR1 RG mutant of HA22"}, "B3": {"name": "HA22 (scFv displayed on phage) (scFv, V domains shown)", "VH": "B1 VH", "VL": "B1 VL with H30S, G31N", "notes": "also called starting molecule; RFB4 with SSY of H-CDR3 mutated to THW"}, "B4": {"name": "E6 (scFv displayed on phage) (scFv, V domains shown)", "VH": "B1 VH", "VL": "B1 VL with H30G, G31R", "notes": "also called L-CDR1 GR mutant of HA22"}, "B5": {"name": "D8 (scFv displayed on phage) (scFv, V domains shown)", "VH": "B1 VH", "VL": "B1 VL with H30A, G31R", "notes": "also called L-CDR1 AR mutant of HA22"}}, "key": {"CD22 (human)": {"biological_target": "CD22 (human) (UniProt P20273)", "assay": "cell-based or functional assay"}, "mesothelin": {"biological_target": "mesothelin (UniProt Q13421)", "sequence (Q13421 other isoform, or with tags, fused parts or gaps limits assumed)": "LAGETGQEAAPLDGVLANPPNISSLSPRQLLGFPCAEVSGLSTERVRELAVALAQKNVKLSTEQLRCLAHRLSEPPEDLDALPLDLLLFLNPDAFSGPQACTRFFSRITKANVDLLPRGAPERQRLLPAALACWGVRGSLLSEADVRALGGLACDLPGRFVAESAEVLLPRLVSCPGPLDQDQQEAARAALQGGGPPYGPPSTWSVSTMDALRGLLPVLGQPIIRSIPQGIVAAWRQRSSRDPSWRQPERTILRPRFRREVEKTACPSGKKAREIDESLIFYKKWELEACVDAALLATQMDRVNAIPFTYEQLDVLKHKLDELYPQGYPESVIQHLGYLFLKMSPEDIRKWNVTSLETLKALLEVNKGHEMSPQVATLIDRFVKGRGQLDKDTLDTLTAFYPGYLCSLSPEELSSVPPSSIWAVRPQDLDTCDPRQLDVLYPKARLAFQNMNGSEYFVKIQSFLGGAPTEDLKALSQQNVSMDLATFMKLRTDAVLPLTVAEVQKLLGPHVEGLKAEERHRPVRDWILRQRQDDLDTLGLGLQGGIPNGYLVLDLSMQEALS", "assay": "cell-based or functional assay"}, "CD22 [1]": {"biological_target": "T1, CD22 (human, UniProt P20273 20-847)", "T1 construct": "whole, on cells; also called native CD22(αβ) on Daudi cells; CD22 antigen", "T1 sequence (looked up)": "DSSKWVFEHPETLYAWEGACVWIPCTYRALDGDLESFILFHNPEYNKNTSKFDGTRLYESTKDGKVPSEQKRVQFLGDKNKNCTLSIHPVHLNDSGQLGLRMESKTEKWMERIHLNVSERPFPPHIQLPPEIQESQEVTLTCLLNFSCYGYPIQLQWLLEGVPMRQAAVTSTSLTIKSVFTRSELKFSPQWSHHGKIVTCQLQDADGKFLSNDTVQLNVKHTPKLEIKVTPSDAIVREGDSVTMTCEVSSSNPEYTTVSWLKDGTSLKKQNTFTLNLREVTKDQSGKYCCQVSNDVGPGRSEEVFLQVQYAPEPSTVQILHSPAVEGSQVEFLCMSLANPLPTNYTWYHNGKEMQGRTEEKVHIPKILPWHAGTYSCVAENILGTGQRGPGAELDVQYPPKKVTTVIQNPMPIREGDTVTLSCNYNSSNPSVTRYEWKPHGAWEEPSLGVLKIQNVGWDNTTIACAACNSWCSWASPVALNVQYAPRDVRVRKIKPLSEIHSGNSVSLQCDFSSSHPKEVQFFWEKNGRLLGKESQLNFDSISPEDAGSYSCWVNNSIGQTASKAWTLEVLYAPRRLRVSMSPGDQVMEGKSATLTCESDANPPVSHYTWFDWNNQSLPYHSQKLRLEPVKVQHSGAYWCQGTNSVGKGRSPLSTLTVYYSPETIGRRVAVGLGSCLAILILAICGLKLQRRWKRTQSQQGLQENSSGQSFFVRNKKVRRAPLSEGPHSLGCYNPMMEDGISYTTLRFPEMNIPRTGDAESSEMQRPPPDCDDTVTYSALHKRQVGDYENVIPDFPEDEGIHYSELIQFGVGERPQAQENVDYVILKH", "assay": "monoclonal phage FACS on Daudi cells"}, "CD22 [2]": {"biological_target": "T1, CD22", "assay": "monoclonal phage FACS on Daudi cells; HA22 is the reference that the mutants exceed"}}, "note": "Numbering of substitutions follows the chain as printed."}
{"molecule": "HA22 (R490A)", "values": [{"measurement": "Cytotoxicity activity (IC50), protein synthesis inhibition, Daudi", "setting": "CD22 (human)", "value": 0.2, "unit": "ng/mL"}, {"measurement": "Cytotoxicity activity (IC50), protein synthesis inhibition, Raji", "setting": "CD22 (human)", "value": 0.3, "unit": "ng/mL"}]}
{"molecule": "HA22 RFB4 (scFv)-PE38 immunotoxin", "values": [{"measurement": "Cytotoxic Activity (IC50), Daudi (30 min incubation)", "setting": "CD22 (human)", "value": 5.6, "unit": "ng/mL"}, {"measurement": "Cytotoxic Activity (IC50), Daudi, 16 hr, protein synthesis", "setting": "CD22 (human)", "value": 0.52, "unit": "ng/mL"}, {"measurement": "Cytotoxic Activity (IC50), Namalwa", "setting": "CD22 (human)", "value": 1.2, "unit": "ng/mL"}, {"measurement": "Cytotoxic Activity (IC50), Ramos", "setting": "CD22 (human)", "value": 4.9, "unit": "ng/mL"}]}
{"molecule": "RFB4 (dsFv)-PE38", "values": [{"measurement": "Cytotoxicity activity (IC50), protein synthesis inhibition, Daudi", "setting": "CD22 (human)", "value": 2.8, "unit": "ng/mL"}, {"measurement": "Cytotoxicity activity (IC50), protein synthesis inhibition, Raji", "setting": "CD22 (human)", "value": 2.5, "unit": "ng/mL"}]}
{"molecule": "SS1P", "values": [{"measurement": "IC50, inhibition of protein synthesis, A431/K5", "setting": "mesothelin", "value": 0.7, "unit": "ng/mL"}, {"measurement": "IC50, inhibition of protein synthesis, A1847", "setting": "mesothelin", "value": 4, "unit": "ng/mL"}]}
{"molecule": "SS1P (R490A)", "values": [{"measurement": "IC50, inhibition of protein synthesis, A431/K5", "setting": "mesothelin", "value": 0.45, "unit": "ng/mL"}, {"measurement": "IC50, inhibition of protein synthesis, A1847", "setting": "mesothelin", "value": 1.5, "unit": "ng/mL"}]}
{"molecule": "B1", "values": [{"measurement": "binding result", "setting": "CD22 [1]", "value": "binds"}]}
{"molecule": "B2", "values": [{"measurement": "binding result", "setting": "CD22 [1]", "value": "binds"}]}
{"molecule": "B3", "values": [{"measurement": "binding result", "setting": "CD22 [2]", "value": "binds"}]}
{"molecule": "B4", "values": [{"measurement": "binding result", "setting": "CD22 [1]", "value": "binds"}]}
{"molecule": "B5", "values": [{"measurement": "binding result", "setting": "CD22 [1]", "value": "binds"}]}
